Here are results for 4 substances from article PMC3223204, “Implantation Serine Proteinase 1 Exhibits Mixed Substrate Specificity that Silences Signaling via Proteinase-Activated Receptors” (PLoS ONE, 2011).

No end group written: not given here.

For this assay, the target named is T1, purified recombinant ISP1 (Mus musculus, UniProt Q924N9).
T1 construct: Myc (C); His6 (C); made in house; host or cells: Pichia pastoris SMD1168
T1 sequence (Q924N9 31-274 limits assumed): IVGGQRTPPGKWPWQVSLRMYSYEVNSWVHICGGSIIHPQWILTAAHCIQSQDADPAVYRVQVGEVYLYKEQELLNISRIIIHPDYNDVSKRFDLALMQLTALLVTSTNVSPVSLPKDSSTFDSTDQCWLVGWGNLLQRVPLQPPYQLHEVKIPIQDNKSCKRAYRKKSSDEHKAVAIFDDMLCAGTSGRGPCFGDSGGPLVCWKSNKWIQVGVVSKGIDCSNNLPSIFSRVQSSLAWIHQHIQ
As to the kind of experiment: In vitro cleavage of synthetic peptides by ISP1 (HPLC, MALDI-TOF). It is filed as biochemical. To be noted: for Cleavage of synthetic peptide by ISP1: 37°C, up to overnight, HPLC; for ISP1 cleavage site in synthetic peptide: MALDI-TOF / amino acid analysis / ES-MS. The procedure: Synthetic peptides (1 mg/ml) diluted in 25 mM Tris.Cl (pH 7.8) were incubated with 2.0 units of purified recombinant ISP1 (total volume of reaction mixture: 0.5 ml) at 37°C overnight. The reaction was terminated by the addition of 0.1% trifluoroacetic acid and the mixture was separated using HPLC with an acetonitrile gradient in 0.1% v/v trifluoroacetic acid. The positions of the hydrolysis products monitored by ultraviolet absorption (E215) were compared to the elution position of the intact peptide. The masses of the individual peaks (E215) were determined by MALDI-TOF mass spectroscopy and were used to deduce the predicted amino acid sequences, based on the parent peptide sequence (amino acids are abbreviated by their one-letter codes, e.g., A = alanine, R = arginine). Except where indicated, all chemical reagents were from VWR International (Mississauga, ON, Canada).
The rat PAR2 sequence representing the cleavage/activation domain (^30 GPNSKGR/ SLIGRLDT ^45P: tethered ligand sequence, underlined), the 27-mer synthetic sequence derived from the N-terminal residues […] of rat PAR2 (I^48 […] ^74) and a 17-mer synthetic peptide sequence derived from extracellular loop 2 of rat PAR2 (V^229 LPEEVLVGDMFSYFLS ^245) were selected for the proteolysis studies. […] The 17-mer ^229–245PAR2 sequence is the potential binding site of the activating peptide. […] These peptides at a concentration of 100 µM were incubated with implantation serine proteinase 1 for varying times up to overnight at 37°C. The incubation buffers were identical to the buffers used for the measurements of enzymatic activities using AMC-substituted peptide substrates. Reactions were terminated either by rapid freezing in liquid nitrogen or by the addition to the proteolysis sample of 2 volumes of a “stop solution” comprising 50% acetonitrile and 0.1% trifluoroacetic acid in water. Samples were either subjected immediately to HPLC analysis, with collection of the E215 peak fractions, or were stored at −80°C for further processing. The cleavage products in peaks of absorption resolved by HPLC were quantified (E215), collected and their identity was established by mass spectral MALDI analysis. Some of the peaks recovered from the HPLC columns, but not ascertained by mass spectral analysis (MALDI-TOF), were identified by total amino acid analysis. Analyses were done at the Southern Alberta Mass Spectrometry Facility at the University of Calgary, Faculty of Medicine (Calgary, Alberta, Canada).

Turning to “cleavage/activation sequence of PAR2: sequence representing the cleavage/activation site of rat PAR2 (30 GPNSKGR/ SLIGRLDT 45P) (GPNSKGRSLIGRLDTP; UniProt Q63645 30-45, looked up, fragment)”, the “Cleavage of synthetic peptide by ISP1” value is reported as “not cleaved”. As for “ITGKGAPVEPGFSVDEFSASVLTGKLT-NH2 [27 mer peptide]”, the “Cleavage of synthetic peptide by ISP1” value is recorded as “successfully cleaved”; the “ISP1 cleavage site in synthetic peptide” value was “between an alanine (P1 sub site) residue and a serine (P1′ sub site) residue”. As for “VLPEEVLVGDMFSYFLS [17-mer synthetic peptide, derived from the extracellular loop 2 domain of rat PAR2]”, the “Cleavage of synthetic peptide by ISP1” value was “successfully cleaved”; the “ISP1 cleavage site in synthetic peptide” value is “between a tyrosine (P1 sub site) residue and a phenylalanine (P1′ sub site) residue; a phenylalanine (P1 sub site) and a leucine (P1′ sub site) residue; a leucine (P1 sub site) and a serine (P1′ sub site) residue”.

Take RRFYIQ-NH2: the “Cleavage of synthetic peptide by ISP1” value is listed as “cleaved by ISP1”.
